According to publication PMC12325948, “14-3-3 binding maintains the Parkinson’s associated kinase LRRK2 in an inactive state” (Nature Communications, 2025):
Residue numbers refer to the chain shown, from its start. In names and notes the source's numbering stands. Values belong to the molecule of their own block, whether it stands above or below them.

Columns and labels:
[1] = target: endogenous 14-3-3 (detected with anti-pan-14-3-3) (UniProt P61981); test: Co-IP
[2] = target: LRRK2 mutants at the secondary interface (COR residues) in the Co-IP of Fig. 2d; test: co-IP; HEK293FT cells transfected with WT or mutant Flag-tagged LRRK2, FLAG-M2 resin, elution with 3X-FLAG peptide, blot with anti-pan-14-3-3; ratio of endogenous 14-3-3 to LRRK2; in one panel cells treated with MLi-2 or Rebastinib
[3] = target: Flag-tagged LRRK2 WT expressed in HEK293FT cells (human) (UniProt Q5S007); test: as above
[4] = target: Flag-tagged LRRK2 R1728H expressed in HEK293FT cells (human) (UniProt Q5S007); test: as above
[5] = target: Full-length human LRRK2 (Uniprot Q5S007 with R85H mutation), N-terminal 3X-FLAG, purified (human) (UniProt Q5S007); test: SEC + other: mass photometry; LRRK2 dimers isolated by gel filtration and confirmed by mass photometry
[6] = target: N-terminal His-tagged 14-3-3γ (Uniprot P61981) (UniProt P61981); test: MST; settings: parent: est. 210 nM, read off a plot
[7] = target: Full-length human LRRK2 (Uniprot Q5S007 with R85H mutation), N-terminal 3X-FLAG, purified, Q5S007; test: MST; settings: chain shown with the change; right graph; 14-3-3 Variants; parent: est. 210 nM; read off a plot
Sequence of Full-length human LRRK2 (Uniprot Q5S007 with R85H mutation), N-terminal 3X-FLAG, purified, Q5S007 (Q5S007 other isoform, or with tags, fused parts or gaps R85H): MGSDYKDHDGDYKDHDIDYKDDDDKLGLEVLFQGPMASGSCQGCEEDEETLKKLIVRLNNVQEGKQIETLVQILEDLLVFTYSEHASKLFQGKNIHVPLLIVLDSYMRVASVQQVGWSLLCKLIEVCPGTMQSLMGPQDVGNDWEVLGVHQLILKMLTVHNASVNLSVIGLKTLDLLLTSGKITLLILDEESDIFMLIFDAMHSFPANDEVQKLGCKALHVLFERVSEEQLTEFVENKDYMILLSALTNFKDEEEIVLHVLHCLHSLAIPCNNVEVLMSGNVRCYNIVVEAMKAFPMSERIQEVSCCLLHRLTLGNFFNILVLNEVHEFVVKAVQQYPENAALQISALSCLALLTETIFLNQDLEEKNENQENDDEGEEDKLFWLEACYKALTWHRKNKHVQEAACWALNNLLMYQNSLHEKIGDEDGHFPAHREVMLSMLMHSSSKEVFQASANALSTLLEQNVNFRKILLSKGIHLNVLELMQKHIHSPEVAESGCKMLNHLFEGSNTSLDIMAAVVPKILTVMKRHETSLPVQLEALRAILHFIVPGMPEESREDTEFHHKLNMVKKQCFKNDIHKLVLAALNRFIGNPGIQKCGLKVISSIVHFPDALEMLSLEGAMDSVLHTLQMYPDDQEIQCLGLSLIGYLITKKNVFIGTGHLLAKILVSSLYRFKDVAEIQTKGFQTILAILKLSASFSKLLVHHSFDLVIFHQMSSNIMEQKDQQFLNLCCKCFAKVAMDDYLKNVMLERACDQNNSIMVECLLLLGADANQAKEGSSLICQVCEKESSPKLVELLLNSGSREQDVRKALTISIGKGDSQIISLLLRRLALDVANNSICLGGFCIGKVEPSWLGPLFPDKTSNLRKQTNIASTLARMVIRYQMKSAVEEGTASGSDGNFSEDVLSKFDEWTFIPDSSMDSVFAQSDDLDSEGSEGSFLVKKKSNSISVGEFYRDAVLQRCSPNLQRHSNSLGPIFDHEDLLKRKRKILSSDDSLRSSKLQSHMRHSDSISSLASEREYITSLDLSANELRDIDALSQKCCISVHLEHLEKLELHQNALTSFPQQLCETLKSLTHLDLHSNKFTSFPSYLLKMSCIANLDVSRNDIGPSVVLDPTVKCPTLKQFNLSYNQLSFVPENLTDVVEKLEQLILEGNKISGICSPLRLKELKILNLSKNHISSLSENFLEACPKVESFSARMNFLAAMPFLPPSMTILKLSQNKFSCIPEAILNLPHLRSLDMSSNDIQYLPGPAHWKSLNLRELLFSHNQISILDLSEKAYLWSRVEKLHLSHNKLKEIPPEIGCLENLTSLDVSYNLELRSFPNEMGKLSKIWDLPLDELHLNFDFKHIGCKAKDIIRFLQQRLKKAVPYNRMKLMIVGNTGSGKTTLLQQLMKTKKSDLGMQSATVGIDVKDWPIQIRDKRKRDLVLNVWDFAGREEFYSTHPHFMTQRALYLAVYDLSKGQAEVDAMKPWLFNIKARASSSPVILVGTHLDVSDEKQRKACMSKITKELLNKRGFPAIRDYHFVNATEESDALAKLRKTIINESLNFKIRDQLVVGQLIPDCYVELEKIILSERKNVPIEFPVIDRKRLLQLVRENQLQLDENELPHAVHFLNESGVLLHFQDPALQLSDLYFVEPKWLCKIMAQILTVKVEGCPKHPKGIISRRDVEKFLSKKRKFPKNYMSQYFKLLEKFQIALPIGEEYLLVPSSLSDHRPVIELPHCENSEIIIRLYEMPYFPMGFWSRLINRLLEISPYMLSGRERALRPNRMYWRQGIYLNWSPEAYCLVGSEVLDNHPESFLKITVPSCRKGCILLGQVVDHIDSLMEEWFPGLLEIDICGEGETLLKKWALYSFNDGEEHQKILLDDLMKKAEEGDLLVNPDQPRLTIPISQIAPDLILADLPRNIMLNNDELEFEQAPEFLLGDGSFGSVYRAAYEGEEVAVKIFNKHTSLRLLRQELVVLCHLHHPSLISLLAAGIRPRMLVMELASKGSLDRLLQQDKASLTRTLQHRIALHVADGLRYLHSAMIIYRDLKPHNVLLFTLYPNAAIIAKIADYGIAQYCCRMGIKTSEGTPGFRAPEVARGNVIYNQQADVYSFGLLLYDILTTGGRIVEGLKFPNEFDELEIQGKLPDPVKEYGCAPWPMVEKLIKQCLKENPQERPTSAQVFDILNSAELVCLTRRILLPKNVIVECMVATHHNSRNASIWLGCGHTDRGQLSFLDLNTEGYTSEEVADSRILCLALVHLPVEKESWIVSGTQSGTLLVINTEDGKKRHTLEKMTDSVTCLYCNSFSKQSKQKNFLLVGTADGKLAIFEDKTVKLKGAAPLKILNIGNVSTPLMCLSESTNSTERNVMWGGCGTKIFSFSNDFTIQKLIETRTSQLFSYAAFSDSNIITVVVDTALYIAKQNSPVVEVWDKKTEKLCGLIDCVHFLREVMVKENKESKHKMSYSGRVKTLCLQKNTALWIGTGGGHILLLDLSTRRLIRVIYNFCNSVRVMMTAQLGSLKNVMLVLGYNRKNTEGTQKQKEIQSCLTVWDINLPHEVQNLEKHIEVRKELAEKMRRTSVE

[8] = target: Full-length human LRRK2 (Uniprot Q5S007 with R85H mutation), N-terminal 3X-FLAG, purified (human) (UniProt Q5S007); test: MST; as a3 with the type I kinase inhibitor MLi-2 at 2 uM
[9] = target: Full-length human LRRK2 (Uniprot Q5S007 with R85H mutation), N-terminal 3X-FLAG, purified (human) (UniProt Q5S007); test: cryo-EM structure; LRRK2 monomer fraction at 50 mM NaCl with at least 60-fold molar excess of 14-3-3γ, cross-linked with 1 mM BS3, Superose 6; map at 3.96 Å, local refinement 3.87 Å
[10] = target: Purified LRRK2 mutants on the LRRK2 side of the COR:14-3-3_(2) interface (MST, Fig. 2e right); test: MST; LRRK2 labelled with RED-NHS 2nd generation at 40 nM, 14-3-3 titrated from a 485 µM stock in 1:2 dilutions, 25 °C for 1 h, 1:1 binding model
[11] = target: Full-length human LRRK2 (Uniprot Q5S007 with R85H mutation), N-terminal 3X-FLAG, purified (human) (UniProt Q5S007); test: as above
[12] = target: Full-length human LRRK2 (Uniprot Q5S007 with R85H mutation), N-terminal 3X-FLAG, purified (human) (UniProt Q5S007); test: SEC-MALS; pre-formed dimeric LRRK2 at 130 nM without and with 14-3-3γ at 1 to 100 times that of LRRK2, Superose 6 Increase 15/150, gel filtration buffer
[13] = target: the molecule itself; test: cryo-EM structure; LRRK2 monomer fraction at 50 mM NaCl with at least 60-fold molar excess of 14-3-3γ, cross-linked with 1 mM BS3, Superose 6; map at 3.96 Å, local refinement 3.87 Å
[14] = target: Purified LRRK2 mutated at the primary interaction residues S910/S935 (human) (UniProt Q5S007)
[15] = target: Full-length human LRRK2 (Uniprot Q5S007 with R85H mutation), N-terminal 3X-FLAG, purified (human) (UniProt Q5S007)
[16] = target: Purified LRRK2 R1441G (human), Q5S007
[17] = target: Purified LRRK2 R1728H (human), Q5S007
[18] = target: Purified LRRK2 R1628P (human), Q5S007
[19] = target: Purified LRRK2 mutated at the secondary interaction residue R1728 (mutant with reduced inhibition) (human), Q5S007
Sequence of Purified LRRK2 mutated at the secondary interaction residue R1728 (mutant with reduced inhibition) (human), Q5S007 (Q5S007 whole entry, change not shown): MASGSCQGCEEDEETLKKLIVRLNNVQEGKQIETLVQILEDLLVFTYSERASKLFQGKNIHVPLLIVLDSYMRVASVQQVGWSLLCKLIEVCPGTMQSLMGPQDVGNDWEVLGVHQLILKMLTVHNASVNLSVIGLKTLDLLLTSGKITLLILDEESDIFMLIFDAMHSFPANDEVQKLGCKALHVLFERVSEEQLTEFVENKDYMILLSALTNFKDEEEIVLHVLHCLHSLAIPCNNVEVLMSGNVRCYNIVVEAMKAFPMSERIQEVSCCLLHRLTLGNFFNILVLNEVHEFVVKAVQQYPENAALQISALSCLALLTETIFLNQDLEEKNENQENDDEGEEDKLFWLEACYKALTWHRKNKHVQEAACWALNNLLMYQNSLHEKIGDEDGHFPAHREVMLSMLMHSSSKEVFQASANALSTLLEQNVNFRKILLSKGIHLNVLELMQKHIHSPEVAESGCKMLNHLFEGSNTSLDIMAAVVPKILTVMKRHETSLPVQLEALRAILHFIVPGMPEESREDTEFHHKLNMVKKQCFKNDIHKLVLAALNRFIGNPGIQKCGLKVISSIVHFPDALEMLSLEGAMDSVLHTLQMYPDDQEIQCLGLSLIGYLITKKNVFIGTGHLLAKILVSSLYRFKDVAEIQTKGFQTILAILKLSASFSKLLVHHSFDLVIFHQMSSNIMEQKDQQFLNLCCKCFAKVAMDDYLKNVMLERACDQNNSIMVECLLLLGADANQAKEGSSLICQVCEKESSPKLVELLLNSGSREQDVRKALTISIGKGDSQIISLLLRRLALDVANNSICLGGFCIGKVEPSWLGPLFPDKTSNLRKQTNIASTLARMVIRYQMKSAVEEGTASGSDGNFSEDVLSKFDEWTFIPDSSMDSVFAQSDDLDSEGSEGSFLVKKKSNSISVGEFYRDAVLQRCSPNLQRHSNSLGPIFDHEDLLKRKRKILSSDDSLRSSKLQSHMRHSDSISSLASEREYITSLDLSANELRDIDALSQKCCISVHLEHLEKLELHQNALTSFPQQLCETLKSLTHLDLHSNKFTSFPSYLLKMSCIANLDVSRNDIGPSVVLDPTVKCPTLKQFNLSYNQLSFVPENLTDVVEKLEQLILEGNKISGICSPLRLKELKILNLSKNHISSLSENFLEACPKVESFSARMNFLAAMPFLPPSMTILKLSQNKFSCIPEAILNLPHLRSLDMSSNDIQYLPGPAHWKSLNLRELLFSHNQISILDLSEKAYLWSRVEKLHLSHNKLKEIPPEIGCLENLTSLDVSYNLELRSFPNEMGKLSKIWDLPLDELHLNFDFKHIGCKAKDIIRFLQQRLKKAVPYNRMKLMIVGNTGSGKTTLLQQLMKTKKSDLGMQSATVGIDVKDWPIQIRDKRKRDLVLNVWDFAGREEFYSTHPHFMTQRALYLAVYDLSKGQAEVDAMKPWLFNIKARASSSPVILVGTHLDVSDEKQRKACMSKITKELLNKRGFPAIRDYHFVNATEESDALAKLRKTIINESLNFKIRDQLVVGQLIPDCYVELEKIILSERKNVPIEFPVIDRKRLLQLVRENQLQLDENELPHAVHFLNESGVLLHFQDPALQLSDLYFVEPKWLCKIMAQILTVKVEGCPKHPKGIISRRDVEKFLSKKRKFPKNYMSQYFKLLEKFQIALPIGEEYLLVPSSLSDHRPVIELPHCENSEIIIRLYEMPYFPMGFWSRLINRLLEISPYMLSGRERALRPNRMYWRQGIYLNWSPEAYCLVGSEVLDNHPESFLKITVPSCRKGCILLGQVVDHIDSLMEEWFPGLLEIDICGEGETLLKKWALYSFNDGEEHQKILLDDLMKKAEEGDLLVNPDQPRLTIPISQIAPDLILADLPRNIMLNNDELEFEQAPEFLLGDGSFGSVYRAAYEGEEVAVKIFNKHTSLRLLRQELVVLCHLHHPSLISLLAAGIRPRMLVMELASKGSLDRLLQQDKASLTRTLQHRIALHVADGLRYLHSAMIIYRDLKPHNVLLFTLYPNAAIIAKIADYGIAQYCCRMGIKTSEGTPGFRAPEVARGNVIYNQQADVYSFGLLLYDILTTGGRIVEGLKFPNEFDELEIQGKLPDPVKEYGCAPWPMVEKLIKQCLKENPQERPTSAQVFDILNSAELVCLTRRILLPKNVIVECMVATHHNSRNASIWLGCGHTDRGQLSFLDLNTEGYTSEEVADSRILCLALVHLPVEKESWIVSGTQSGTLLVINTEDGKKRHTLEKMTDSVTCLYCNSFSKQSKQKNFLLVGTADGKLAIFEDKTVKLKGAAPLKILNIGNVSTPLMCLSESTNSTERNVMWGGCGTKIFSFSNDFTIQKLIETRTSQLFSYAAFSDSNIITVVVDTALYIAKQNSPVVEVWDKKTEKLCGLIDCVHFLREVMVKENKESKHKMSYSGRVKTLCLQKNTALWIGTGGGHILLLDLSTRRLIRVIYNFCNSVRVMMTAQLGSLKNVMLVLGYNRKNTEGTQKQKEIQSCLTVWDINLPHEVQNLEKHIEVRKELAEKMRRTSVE

[20] = target: Purified LRRK2 mutated at the secondary interaction residue L1727 (human), Q5S007
Sequence of Purified LRRK2 mutated at the secondary interaction residue L1727 (human), Q5S007 (Q5S007 whole entry, change not shown): as above

[21] = target: Purified LRRK2 mutated at the secondary interaction residue N1730 (human), Q5S007
Sequence of Purified LRRK2 mutated at the secondary interaction residue N1730 (human), Q5S007 (Q5S007 whole entry, change not shown): as above

[22] = in cells, n = 3, parent: est. 1.0, read off a plot
[23] = left graph, Flag-tagged LRRK2 and endogenous 14-3-3, n = 3, parent: est. 1.0, read off a plot
[24] = right graph, Flag-tagged LRRK2 and endogenous 14-3-3, n = 3, parent: est. 1.0, read off a plot

Molecule: Flag-tagged LRRK2 WT expressed in HEK293FT cells, Q5S007 R1628P
ratio to parent [1, 22]: 1.6

Molecule: Flag-tagged LRRK2 WT expressed in HEK293FT cells, Q5S007 S910A; S935A
ratio to parent [1, 22]: 0.02 | ratio to parent [1, 23]: 0.03 | ratio to parent [1, 24]: 0.01

Molecule: Flag-tagged LRRK2 WT expressed in HEK293FT cells, Q5S007 R1441G
ratio to parent [1, 22]: 0.07

Molecule: Flag-tagged LRRK2 WT expressed in HEK293FT cells, Q5S007 E1632A
ratio to parent [1, 23]: 0.07

Molecule: Full-length human LRRK2 (Uniprot Q5S007 with R85H mutation), N-terminal 3X-FLAG, purified (from UniProt Q5S007 1-2527) (enzyme)
stoichiometry N [5]: 2

Molecule: Full-length human LRRK2 (Uniprot Q5S007 with R85H mutation), N-terminal 3X-FLAG, purified, Q5S007 S910A; S935A
Kd ([6]; left graph, bar labelled S910/S935A): 230000 nM

Molecule: Flag-tagged LRRK2 WT expressed in HEK293FT cells, Q5S007 N1730A
ratio to parent [1, 24]: 0.18

Molecule: Full-length human LRRK2 (Uniprot Q5S007 with R85H mutation), N-terminal 3X-FLAG, purified, Q5S007 L1727A
Kd ([6]; right graph, LRRK2 Variants): 470 nM

Molecule: Full-length human LRRK2 (Uniprot Q5S007 with R85H mutation), N-terminal 3X-FLAG, purified, Q5S007 R1728A
Kd ([6]; right graph, LRRK2 Variants): 560 nM

B1: N-terminal His-tagged 14-3-3γ (Uniprot P61981), P61981 Y216A (protein)
chain: MVDREQLVQKARLAEQAERYDDMAAAMKNVTELNEPLSNEERNLLSVAYKNVVGARRSSWRVISSIEQKTSADGNEKKIEMVRAYREKIEKELEAVCQDVLSLLDNYLIKNCSETQYESKVFYLKMKGDYYRYLAEVATGEKRATVVESSEKAYSEAHEISKEHMQPTHPIRLGLALNYSVFYYEIQNAPEQACHLAKTAFDDAIAELDTLNEDSAKDSTLIMQLLRDNLTLWTSDQQDDDGGEGNN
Kd [7]: 680 nM

B4: N-terminal His-tagged 14-3-3γ (Uniprot P61981), P61981 1-247 (natural protein)
chain: B1 chain with A216Y
reduction of the 14-3-3 mediated inhibition of LRRK2 kinase activity [16]: 30% | reduction of the inhibition of LRRK2 kinase activity by 14-3-3 compared to WT [17]: 20% | reduction of the inhibition of LRRK2 kinase activity by 14-3-3 compared to WT [18]: 20% | inhibition of Rab10 phosphorylation by LRRK2 in an in vitro kinase assay, 14-3-3 at 300 µM [19]: 25% | inhibition of Rab10 phosphorylation by LRRK2 in an in vitro kinase assay, 14-3-3 at 300 µM [20]: 25% | inhibition of Rab10 phosphorylation by LRRK2 in an in vitro kinase assay, 14-3-3 at 300 µM [21]: 25%

B5: N-terminal His-tagged 14-3-3γ (Uniprot P61981), P61981 R227A (protein)
chain: B1 chain with A216Y, R227A
Kd [7]: 640 nM

Continued, in another order:

ratio to parent ([1]; right graph, Flag-tagged LRRK2 and endogenous 14-3-3, n = 3, marked ns against WT, parent: est. 1.0, read off a plot): 0.98
Molecule: Flag-tagged LRRK2 WT expressed in HEK293FT cells, Q5S007 R1728A

fold decrease in co-immunoprecipitated 14-3-3 [2]: 2 to 13 fold | percent reduction in binding against WT [2]: 40 to 90% | fold decrease in co-immunoprecipitated 14-3-3 after treatment of the cells with MLi-2 [3]: 7 fold | percent decrease in binding relative to WT [4]: 50%
Molecule: endogenous 14-3-3 (detected with anti-pan-14-3-3) (from UniProt P61981 1-247) (natural protein)

ratio to parent [1, 23]: 0.54
Molecule: Flag-tagged LRRK2 WT expressed in HEK293FT cells, Q5S007 S1636A

ratio to parent [1, 24]: 0.63
Molecule: Flag-tagged LRRK2 WT expressed in HEK293FT cells, Q5S007 L1727A

ratio to parent [1, 23]: 0.11
Molecule: Flag-tagged LRRK2 WT expressed in HEK293FT cells, Q5S007 L1635A

ratio to parent [1, 22]: 1.5
Molecule: Flag-tagged LRRK2 WT expressed in HEK293FT cells, Q5S007 G2019S

fold decrease in binding affinity with MLi-2 against no inhibitor [8]: 2 fold | stoichiometry N (14-3-3 dimer per LRRK2 monomer) [9]: 1 | fold increase in KD against the wild-type pair [10]: 2 to 3 fold | Kd [11]: 212 nM | stoichiometry N (14-3-3γ dimer per LRRK2 dimer) [12]: 1 | inhibition of Rab10 phosphorylation by LRRK2 in an in vitro kinase assay, 14-3-3 at 300 µM [14]: 25% | inhibition of Rab10 phosphorylation by LRRK2 in an in vitro kinase assay, 14-3-3 from 0 to 300 µM [15]: 50%
B2: N-terminal His-tagged 14-3-3γ (Uniprot P61981) (natural protein, human)
chain: B1 chain with A216Y
notes: 14-3-3γ, Uniprot P61981; A TEV site follows the His tag; no cleavage is described; also called 14-3-3 gamma; 14-3-3 dimer; source: E. coli BL21*(DE3), purified (Ni-NTA, Superdex 75)
stoichiometry N [13]: 2

Kd [7]: 490 nM
B3: N-terminal His-tagged 14-3-3γ (Uniprot P61981), P61981 Q224A (protein)
chain: B1 chain with A216Y, Q224A
